According to article PMC11470055:

Target: AP-DT/AA-LRRTM2 (UniProt O43300)
Assay: immunostaining of cells or tissue; Nrxn-binding assay: live COS-7 cells expressing biotinylated AP-LRRTM2 (WT or mutants), BirA-ER and EGFP incubated 20 min with Nrxn solution (2 µg Nrxn-1β-Fc + 1.3 µg AlexaFluor647 anti-human Fc), then labelled with mSA-ATTO565 in Tyrode's solution (2 mM CaCl2, pH 7.4) and imaged live; Nrxn1β-Fc surface intensity normalised to AP-LRRTM2 expression

Chain of UniProt O43300 (O43300 34-516 D259A/T261A): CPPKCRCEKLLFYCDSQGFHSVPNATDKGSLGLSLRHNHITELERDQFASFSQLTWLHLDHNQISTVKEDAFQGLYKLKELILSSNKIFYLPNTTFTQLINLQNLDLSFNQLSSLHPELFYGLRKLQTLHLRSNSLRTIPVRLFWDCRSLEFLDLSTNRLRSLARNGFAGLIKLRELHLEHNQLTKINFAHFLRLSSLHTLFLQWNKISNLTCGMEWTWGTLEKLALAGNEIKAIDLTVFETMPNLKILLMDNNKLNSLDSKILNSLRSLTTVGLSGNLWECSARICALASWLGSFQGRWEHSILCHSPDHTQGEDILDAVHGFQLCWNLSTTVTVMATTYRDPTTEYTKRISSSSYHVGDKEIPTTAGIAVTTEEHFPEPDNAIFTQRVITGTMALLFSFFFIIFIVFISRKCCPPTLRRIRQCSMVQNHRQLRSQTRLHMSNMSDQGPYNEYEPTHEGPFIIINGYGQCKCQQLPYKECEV

Substance: Nrxn1β-Fc (-SS4) (Fc fusion)
- percent loss of Nrxn1β-Fc binding against AP-LRRTM2-WT: 50%
